Measurements published in US12410234B2, “Compositions and methods for retrieving tumor-related antibodies and antigens” (THE TRUSTEES OF THE UNIVERSITY OF PENNSYLVANIA, priority 2018, dated 2025).

Assays:
THP-1 cells [1] = experiment: Flow cytometry binding of nanobodies to THP-1 cells; set-up: species or system human
From the text: FIGS. 1A-1C are series of images and graphs depicting the steps for generating nanobodies that both differentially bind tumor cells and empower CAR T cells to kill the tumor cells. FIG. 1A: Flow chart of AML specific CAR compatible nanobodies in vivo screening. Llama was immunized with AML cell line THP-1. Nanobody library was generated from the llama PMBC including B cells by molecular cloning. Two rounds of conventional cell-based phage display were applied, which took T-ALL cell line Jurkat or chronic myelogenous leukemia (CML) cell line K-562 as negative absorption, followed by one round of count-selection. The resultant THP-1 specific nanobodies were inserted into a chimeric antigen receptor expressing lenti-vector to generate Nb-CAR library. Human primary T cells were transduced by the Nb-CAR library and injected into THP-1 or K562 borne NSG mice to perform the in vivo selection. Nbs that can adapt T cells to enrich in the tumor were PCR-amplified and sequenced. […]
FIGS. 6A-6H are series of images and graphs depicting that Nb switch-activated CAR T cells eradicate AML in vivo in a controllable manner. […] The engraftment volumes were monitored by measuring the lengths and widths of the tumors. […] The primary leukemia or CAR T cells in the mouse peripheral blood were monitored by staining with CD33 or CD3 fluorescence labeled antibodies.

Jurkat cells = experiment: Flow cytometry binding of nanobodies to Jurkat cells; set-up: species or system human
From the text: (§1) FIGS. 1A-1C are series of images and graphs depicting the steps for generating nanobodies that both differentially bind tumor cells and empower CAR T cells to kill the tumor cells. FIG. 1A: Flow chart of AML specific CAR compatible nanobodies in vivo screening. Llama was immunized with AML cell line THP-1. Nanobody library was generated from the llama PMBC including B cells by molecular cloning. Two rounds of conventional cell-based phage display were applied, which took T-ALL cell line Jurkat or chronic myelogenous leukemia (CML) cell line K-562 as negative absorption, followed by one round of count-selection. The resultant THP-1 specific nanobodies were inserted into a chimeric antigen receptor expressing lenti-vector to generate Nb-CAR library. Human primary T cells were transduced by the Nb-CAR library and injected into THP-1 or K562 borne NSG mice to perform the in vivo selection. Nbs that can adapt T cells to enrich in the tumor were PCR-amplified and sequenced. FIG. 1B: 10 million THP-1 cells or 5 million K562 cells were transplanted into NSG mice subcutaneously, followed by treatment of untransduced (UTD) T cells or Nb-lib-CAR T cells. 2 weeks later, Nbs from tumor infiltrated T cells were isolated and identified by PCR amplification. FIG. 1C: Top 5 frequent Nbs in the THP-1 tumor were listed and tested for their recognition to the THP-1 cells, Jurkat cells, or K-562 cells.

K562 cells = experiment: Flow cytometry binding of nanobodies to K562 cells; set-up: species or system human
From the text: as §1

[2] = tested on: other AML cell lines like HL60, NB4, and U937; experiment: Recognition of other AML cell lines by THP-1 specific Nbs; type: binding, human
Protocol: FIG. 7 is series of a table and graphs depicting the affinity test of VHHs against variant of AML cell lines and patient derived AMLs. The four THP-1 specific Nbs were tested for their recognition to other AML cell lines. + was <0.5 log shift, ++ was <1.0 log shift, +++ was <1.5 log shift, − was no binding.

[3] = molecular target: T1, human full length aminopeptidase N (APN, aka CD13) (Homo sapiens, UniProt P15144); experiment: Flow cytometry of nanobody phage on HEK293T cells transfected with membrane protein cDNA; type: binding; conditions: nanobody-expressing phage
T1 construct: expressed in transfected cells; host or cells: HEK293T
T1 sequence (P15144 whole entry): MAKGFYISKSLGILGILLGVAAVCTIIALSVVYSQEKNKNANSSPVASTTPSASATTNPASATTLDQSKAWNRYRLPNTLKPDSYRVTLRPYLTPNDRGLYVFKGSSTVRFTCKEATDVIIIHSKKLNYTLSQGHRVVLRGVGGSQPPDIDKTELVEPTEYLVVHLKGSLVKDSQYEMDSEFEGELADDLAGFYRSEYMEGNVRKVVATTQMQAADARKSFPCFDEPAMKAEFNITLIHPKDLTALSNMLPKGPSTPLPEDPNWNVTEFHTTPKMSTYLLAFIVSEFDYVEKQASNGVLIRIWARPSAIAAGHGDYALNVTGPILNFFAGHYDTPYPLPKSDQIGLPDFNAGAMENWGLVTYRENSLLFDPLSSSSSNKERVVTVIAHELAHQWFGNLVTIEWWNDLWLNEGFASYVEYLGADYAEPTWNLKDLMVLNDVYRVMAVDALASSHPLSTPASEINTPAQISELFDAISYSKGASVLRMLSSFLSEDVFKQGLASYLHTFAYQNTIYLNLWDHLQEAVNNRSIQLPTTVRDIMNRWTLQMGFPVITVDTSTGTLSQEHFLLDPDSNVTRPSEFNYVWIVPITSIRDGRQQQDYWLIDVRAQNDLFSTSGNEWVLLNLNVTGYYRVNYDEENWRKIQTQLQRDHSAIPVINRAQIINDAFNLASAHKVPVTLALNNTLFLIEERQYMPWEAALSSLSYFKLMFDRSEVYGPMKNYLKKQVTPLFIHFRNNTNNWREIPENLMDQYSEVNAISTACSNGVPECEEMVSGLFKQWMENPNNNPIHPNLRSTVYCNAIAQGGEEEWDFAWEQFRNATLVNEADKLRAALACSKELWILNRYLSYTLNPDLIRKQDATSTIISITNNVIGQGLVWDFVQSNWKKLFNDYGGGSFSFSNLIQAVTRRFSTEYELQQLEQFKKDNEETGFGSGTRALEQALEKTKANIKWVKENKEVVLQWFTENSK
From the text: (§2) FIGS. 4A-4F are series of images and graphs illustrating the identification of CD13 as a target to kill AML cells by CAR T cells. FIG. 4A: Experiment schema: About 3000 cell membrane protein cDNAs were purified and transfected into HEK293T cells separately, followed by flow analysis with the nanobodies expressing phage and FITC-labeled secondary antibody against phage M13 protein. FIG. 4B: Flow analysis of nanobodies binding to the HEK293T cells with CD13 overexpression. FIG. 4C: CD13 cDNA expression confirmed in HEK293T cells by western blot. FIG. 4D: Western blot to confirm the gRNA/CRISPR guided CD13 knockout effect in THP-1 cells. Three independent gRNAs were transduced into THP-1 separately, followed by puromycin selection and single individual clone expansion. FIG. 4E: Flow analysis of Nb157 or Nb163 binding CD13 knockout THP-1 cells. FIG. 4F: Killing assay of Nbs CAR T cells to the THP-1 wild type (wt) or THP-1 cd13-ko.
To identify the protein antigens of the isolated nanobodies, about 3000 human cell membrane protein cDNAs were prepared and transfected into HEK293T cells individually, followed by flow cytometry detection with the nanobody-expressing phage and FITC-labeled secondary antibody against phage M13 protein (FIG. 4A). […] As a confirmation, human CD13 cDNA expression was also shown by western blot (FIG. 4C). CD13 is preferentially expressed in acute myeloid blast cells.

[4] = tested on: CD13 knockout THP-1 cells; experiment: Flow analysis of Nb binding to CD13 knockout THP-1 cells; set-up: species or system human; conditions: flow cytometry
From the text: as §2
To knockout CD13 in THP-1 cell line, LentiCRISPRv2.0 vector was applied according to the protocol (Sanjana, N. E. et al, (2014) Nature methods 11, 783-784). sgRNA targeting human CD13 were listed as below, sgCD13-1 […] (SEQ ID NO: 14), sgCD13-2 […] (SEQ ID NO: 15), […]. Plasmids were confirmed by sequencing and packaged into lentivirus, followed by infecting THP-1 cells. […]

[5] = tested on: patient-derived AML cells; experiment: Flow analysis of Nb binding to patient derived AML cells; set-up: species or system human; conditions: patient AML2844
Protocol: FIGS. 5A-5B: Both Nb157 and Nb163 recognized the patient derived AML cells by flow analysis. FIGS. 5C-5D: Both Nb157 and Nb163 CAR T cells specifically killed the patient derived AML cells in vitro in a dose dependent manner. […] In brief, 20 million of Patient derived AML cells were injected into NSG mouse, followed by 3 million of Nb157 CAR T cells or UTD T cells treatment. The survival of mice was monitored. Each group n=10. FIGS. 5F-5I: Patient derived AML in NSG bone marrow and spleen were monitored after Nb157 CAR T cell treatment by staining with anti-human CD45/CD3/CD33, followed by flow cytometry analysis. FIGS. 5J-5K: At the end points of each group of experiment, the mice spleens were harvested and fixed by paraformaldehyde, followed by immunofluorescence staining of the anti-human CD3/CD33 and DAPI (Nuclear).
To further determine whether the Nb157 CAR T cells can also kill the patient-derived AML cells, CD13 expression of the leukemia cells from patient AML2844 was examined. […] Thereafter, the therapeutic effect of the CAR T cells on the mice with the patient-derived AML cells was examined. To this end, the NSG mice were transplanted with the primary AML cells, followed by treatment with either control UTD or Nb157 CAR T cells.

THP-1 cells [6] = experiment: Killing assay of Nb157-PNE-mediated sCAR system; type: cell-based, human; conditions: sCAR T to THP-1 2:1, 16 hours
From the text: FIGS. 6A-6H are series of images and graphs depicting that Nb switch-activated CAR T cells eradicate AML in vivo in a controllable manner. FIGS. 6A-6B: Schematic diagram of switchable CAR T system. The Nb157 was expressed and purified by fusing with PNE, a fourteen amino acid peptide, either at N terminal or C terminal of the Nanobody. Primary human T cells were engineered by lentivirus transduction of scFv CAR that recognized PNE specifically. FIG. 6C: Test the affinity of Nb157, Nb157-N-PNE or Nb157-C-PNE against THP-1 cells by flow cytometry analysis. FIG. 6D: Killing assay of Nb157-PNE-mediated sCAR system against THP-1 cells in series of switch concentrations. The ratio of sCAR T to THP-1 was 2:1 and assay was performed after 16 hours incubation. FIG. 6E: 10 million THP-1 cells were transplanted into NSG mice subcutaneously to form the 150 mm^3 of tumors. […] The engraftment volumes were monitored by measuring the lengths and widths of the tumors. […] The primary leukemia or CAR T cells in the mouse peripheral blood were monitored by staining with CD33 or CD3 fluorescence labeled antibodies.
Killing assays were performed as previously described (Cao, L. F. et al. (2010) Cytometry A 77, 534-545). […] Quantification were calculated by either Countbright beads or volume.

BON cells = experiment: Flow cytometry binding of VLV or VLV-DM1 to BON cells; set-up: species or system human
Protocol: (§3) Scale bar: […]. […] Scale bar: […].

QGP1 cells = experiment: Flow cytometry binding of VLV or VLV-DM1 to QGP1 cells
Protocol: as §3

CD13-/- THP-1 cell lines = experiment: Killing assay on THP-1 cd13-ko cells; type: cell-based, human; conditions: THP-1 cd13-ko vs wild type
From the text: as §2
Killing assays were performed as previously described (Cao, L. F. et al. (2010) Cytometry A 77, 534-545). In brief, target cells were labeled by anti-CD33 (BD) for detecting cell number with flow cytometry analysis or labeled by CellTrace Far Red for tracing cell division. Target cells were incubated with effector T cells for 16 hrs at a series of ratios. […] Quantification were calculated by either Countbright beads or volume. […]

Molecule | binding to THP-1 cells (THP-1 cells [1]) | binding to Jurkat cells (Jurkat cells) | binding to K562 cells (K562 cells) | binding to other AML cell lines [2] | binding to cells transfected with human CD13 [3] | binding after CD13 knockout in THP-1 [4] | recognition of patient-derived AML cells [5] | switch-triggered killing of THP-1 cells by sCAR T cells (THP-1 cells [6]) | binding to BON cells (BON cells) | binding to QGP1 cells (QGP1 cells) | killing of target cells after CD13 knockout (CD13-/- THP-1 cell lines)
Nb157: THP-1 specific llama nanobody binding CD13, SEQ ID NO: 19 (protein, VHH157) VHH: AAQAAQVQLQESGGGLVQPGGSLSLSCTASGFTFSSYSMAWVRQAPGKGPEWVSGIYPSDGKTRYADFVKGRFSISRDNAKNMLYLQMNNLEPEDTALYYCARGITGLGPRGQGTQVTVSSAA | specifically bound THP-1 cells | but not Jurkat or K562 cells | but not Jurkat or K562 cells | also bound other AML cell lines like HL60, NB4, and U937 | bound the cells transfected with human full length aminopeptidase N | CD13 knockout abrogated the binding | detected the CD13 expression on the primary AML cells | – | – | – | –
Nb157-N-PNE: Nb157 with N-terminal PNE; inducible nanobody switch (protein, left off: small tags and cut ends, Nb157 with N-terminal PNE; inducible nanobody switch) AAQAAQVQLQESGGGLVQPGGSLSLSCTASGFTFSSYSMAWVRQAPGKGPEWVSGIYPSDGKTRYADFVKGRFSISRDNAKNMLYLQMNNLEPEDTALYYCARGITGLGPRGQGTQVTVSSAA | – | – | – | – | – | – | – | slightly reduced the cytolysis-inducing activity | – | – | –
VLV: VHH1 homodimer connected by a linker (protein, left off: small tags and cut ends, VHH1 homodimer connected by a linker) VHH 1: QVQLQESGGGLVQPGGSTRLSCVSSRTFSYYDMGWFRQAPGKEREFVALLSWNGENAEYSDSVMGRFTVSRGNTQNSVNLQMNNLKPEDTGIYYCAVTHGGARSVRSWGQGTQVTVSS VHH 2: QVQLQESGGGLVQPGGSTRLSCVSSRTFSYYDMGWFRQAPGKEREFVALLSWNGENAEYSDSVMGRFTVSRGNTQNSVNLQMNNLKPEDTGIYYCAVTHGGARSVRSWGQGTQVTVSS | – | – | – | – | – | – | – | – | bound to BON cells | but not QGP1 cells | –
Nb163: THP-1 specific llama nanobody binding CD13, SEQ ID NO: 24 (protein, VHH163) VHH: AAQAAQVQLQESGGGLVQPGGSLRLSCVPSGFTFDGYLIGWFRQAPGSERKAVSCISVNGDRTNYADSVKGRFTISRDNAKNTVYLQMNSLRPNDTAIYYCATRRGNRLYNNNCPYFEYGTWGQGTQVTVSSAA | specifically bound THP-1 cells | but not Jurkat or K562 cells | but not Jurkat or K562 cells | also bound other AML cell lines like HL60, NB4, and U937 | bound the cells transfected with human full length aminopeptidase N | CD13 knockout abrogated the binding | detected the CD13 expression on the primary AML cells | – | – | – | diminished the killing of Nb163 to the targets significantly, but cannot abrogated the effect completely
